Each block holds one binder with its values, some of them ahead of it.
Legend:
[1] = target: T1, human PD-1 expressed on cells (human, UniProt Q15116 25-288); test: flow cytometry on cells overexpressing hPD-1
T1 construct: whole, on cells; also called hPD-1; 293 cell line stably expressing human PD-1

[2] = target: T1, human PD-1 expressed on cells; test: flow cytometry on activated hCD8 T cells from human blood, 2nd-hIgG-PE detection; 2nd-hIgG-PE alone 1.73
[3] = target: T1, human PD-1 expressed on cells; test: cell-based or functional assay
[4] = target: T1, human PD-1 expressed on cells; test: cell-based or functional assay; remark: listed apart in the source
[5] = target: T2, recombinant human PD-1-His protein (ECD) (human, UniProt Q15116 25-170); test: SPR, purified hybridoma antibody, recombinant human PD-1-His (ECD)
T2 construct: extracellular domain; Used as ELISA coat and SPR partner; also called rhprotein; antigen; not shown: His tag
T2 sequence (Q15116 25-170): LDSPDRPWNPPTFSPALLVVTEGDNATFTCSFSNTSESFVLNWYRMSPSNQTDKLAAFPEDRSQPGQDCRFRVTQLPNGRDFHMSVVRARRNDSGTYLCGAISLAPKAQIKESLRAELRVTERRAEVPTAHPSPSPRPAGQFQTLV

[6] = target: T2, recombinant human PD-1-His protein (ECD); test: SPR; number in the sensorgram panel without name or unit, taken as KD in M because 8.999e-9 stands for 9 nM in FIG 9d
[7] = target: T2, recombinant human PD-1-His protein (ECD); test: SPR, purified antibody, PD-1 antigen
[8] = target: T2, recombinant human PD-1-His protein (ECD); test: Q-ELISA of purified antibody on recombinant human PD-1-His, drawn table
Protocol: For ELISA, the recombinant human PD-1-His protein was O/N coated on a 96-well ELISA plate at 4° C., and blocked with 5% non-fat skim milk at RT for 1 hr. […]

[9] = target: T1, human PD-1 expressed on cells; test: flow cytometry on hPD-1/293 cells, 2nd-hIgG-PE detection; Ctl 2nd-hIgG 0.17, cell only 0.03
From the text: In addition, each purified humanized antibody was bound to 293 cells expressing human PD-1 and analyzed by flow cytometry.

[10] = target: T2, recombinant human PD-1-His protein (ECD); test: SPR; number in the sensorgram panel without name or unit, taken as KD in M because 5.789e-9 stands for 5.8 nM in FIG 9d

T1 sequence (Q15116 25-288): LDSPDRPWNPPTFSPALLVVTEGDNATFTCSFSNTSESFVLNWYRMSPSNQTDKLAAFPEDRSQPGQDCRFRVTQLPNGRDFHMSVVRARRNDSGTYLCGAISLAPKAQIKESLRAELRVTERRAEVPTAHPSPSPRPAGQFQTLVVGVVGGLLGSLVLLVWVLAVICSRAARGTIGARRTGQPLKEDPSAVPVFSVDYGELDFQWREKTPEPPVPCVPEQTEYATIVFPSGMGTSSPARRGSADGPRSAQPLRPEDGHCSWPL

percent of cells in the positive quadrant [1]: 96.6% | percent of cells in the positive quadrant [2]: 12.4%
B4: T15-04 (antibody, V domains shown)
VH: EVQLVESGGGLVKPGGSLRLSCAASGFTFSSFGMSWVRQAPGKGLELVATIYSNGDYTYYPDSVKGRFTVSRDNAKNSLYLQMNSLRAEDTAVYYCARYYGNYGGYFDYWGQGTLVTVSS
VL: AIQMTQSPSSLSASVGDRVTITCKASQSVSNDVAWYQQKPGKAPKLLIYYAYMRYTGVPSRFSGSGSGTDFTLTISSLQPEDFATYYCQQDYSSPPTFGGGTKVEIK

Kd [6]: 1800 nM | percent of cells in the positive quadrant [1]: 95.5%
B7: 8D4-T16-02 (antibody, V domains shown)
VH: QVQLVQSGAEVKKPGASVKVSCKASGYTFTTYWIHWVRQAPGQGLEWIGYINPTTGYTEYNQKFKDRATLTADKSTSTAYMELSSLRSEDTAVYYCARGVRYYFDYWGKGTTVTVSS
VL: DIVMTQSPDSLAVSLGERATINCKSSQSLLDSRTRKNYLAWYQQKPGQPPKLLIYWASTRESGVPDRFSGSGSGTDFTLTISSLQAEDVAVYYCQQQYDPPITFGQGTKLEIK
notes: Engineered clone of humanized 8D4; also called T1-02

percent of cells in the positive quadrant [1]: 95% | EC50 (read off the curve); PD-1/PD-L1 Blockade Bioassay, luciferase RAU [3]: ~0.8 µg/mL | percent of cells in the positive quadrant [2]: 17.1%
B9: T14-04 (antibody, V domains shown)
VH: EVQLVESGGGLVQPGGSLRLSCAASGFVFSNYDMSWVRQAPGKGLEWVAYITIGGGTTYYPDTVKGRFTISRDNAKNSLYLQMNSLRAEDTAVYYCARWRYDPLFAMDYWGQGTTVTVSS
VL: DIVLTQTPLSLSVTPGQPASISCRASESVDNYGISFMNWFLQKPGQPPQLLIYAASNQGSGVPDRFSGSGSGTDFTLKISRVEAEDVGVYYCQQSKEVPWTFGQGTKVEIK

percent of cells in the positive quadrant [1]: 96% | percent of cells in the positive quadrant [2]: 11.8%
B10: T14-02 (antibody, V domains shown)
VH: EVQLVESGGGLVQPGGSLRLSCAASGFVFSNYDMSWVRQAPGKGLEWVAYITIGGGTTYYPDTVKGRFTISRDNAKNSLYLQMNSLRAEDTAVYYCARWVYDPLYAMDYWGQGTTVTVSS
VL: DIVLTQTPLSLSVTPGQPASISCRASESVDNYGISFMNWFLQKPGQPPQLLIYAASNQGSGVPDRFSGSGSGTDFTLKISRVEAEDVGVYYCQQSEEVPWTFGQGTKVEIK

Further lines, the binder ahead of its results:

B1: T15-02 (antibody, V domains shown)
VH: EVQLVESGGGLVKPGGSLRLSCAASGFTFSSFGMSWVRQAPGKGLELVATIYSNGDYTYYPDSVKGRFTVSRDNAKNSLYLQMNSLRAEDTAVYYCARYYGNYGGYFDYWGQGTLVTVSS
VL: AIQMTQSPSSLSASVGDRVTITCKASQSVSNDVAWYQQKPGKAPKLLIYYASNRYTGVPSRFSGSGSGTDFTLTISSLQPEDFATYYCQQDFWYPPTFGGGTKVEIK
percent of cells in the positive quadrant [1]: 96.9% | percent of cells in the positive quadrant [2]: 19.3%

B2: T15-05 (antibody, V domains shown)
VH: EVQLVESGGGLVKPGGSLRLSCAASGFTFSSFGMSWVRQAPGKGLELVATIYHSRDYTYYPDSVKGRFTVSRDNAKNSLYLQMNSLRAEDTAVYYCARYYGNYGGYFDYWGQGTLVTVSS
VL: AIQMTQSPSSLSASVGDRVTITCKASQSVSNDVAWYQQKPGKAPKLLIYYASNRYTGVPSRFSGSGSGTDFTLTISSLQPEDFATYYCQQDYSSPPTFGGGTKVEIK
percent of cells in the positive quadrant [1]: 97.5% | percent of cells in the positive quadrant [2]: 16.1%

B3: T15-03 (antibody, V domains shown)
VH: EVQLVESGGGLVKPGGSLRLSCAASGFTFSSFGMSWVRQAPGKGLELVATIYSNGDYTYYPDSVKGRFTVSRDNAKNSLYLQMNSLRAEDTAVYYCARYYGNYGGYFDYWGQGTLVTVSS
VL: AIQMTQSPSSLSASVGDRVTITCKASQSVSNDVAWYQQKPGKAPKLLIYYAYMRYTGVPSRFSGSGSGTDFTLTISSLQPEDFATYYCHQDYSSPPTFGGGTKVEIK
percent of cells in the positive quadrant [1]: 96.7% | EC50 (read off the curve); PD-1/PD-L1 Blockade Bioassay, luciferase RAU [3]: ~1 µg/mL | percent of cells in the positive quadrant [2]: 10.7%

B5: 4-8D4 hybridoma antibody (antibody, V domains shown)
VH: QVQLQQSGAELAKPGASVKMSCKASGYTFTTYWIHWVKQRPGQGLEWIGYINPTTGYTEYNQKFKDKATLTADKSSNTAYMQLSSLTSEDSAVYYCARGVRYYFDYWGKGTTLTVSS
VL: DIVMSQSPSSLAVSAGEKVTMSCKSSQSLLDSRTRKNYLAWYQQKPGQSPKLLIYWASTRESGVPDRFTGSGSGTDFTLTISSVKAEDLAVYLCKQSYNLITFGAGTKLELK
notes: Mouse hybridoma antibody
IC50 (read off the curve); PD-1/PD-L1 blocking reporter assay, fold induction [4]: ~3 µg/mL | Kd [5]: 15.9 nM | koff [5]: 0.00106 s⁻¹ | kon [5]: 66700 M⁻¹ s⁻¹

B6: humanized antibody 8D4 (antibody, V domains shown)
VH: QVQLVQSGAEVKKPGASVKVSCKASGYTFTTYWIHWVRQAPGQGLEWIGYINPTTGYTEYNQKFKDRATLTADKSTSTAYMELSSLRSEDTAVYYCARGVRYYFDYWGKGTTVTVSS
VL: DIVMTQSPDSLAVSLGERATINCKSSQSLLDSRTRKNYLAWYQQKPGQPPKLLIYWASTRESGVPDRFSGSGSGTDFTLTISSLQAEDVAVYYCKQSYNLITFGQGTKLEIK
notes: Humanized antibody
Kd [6]: 18.5 nM | percent of cells in the positive quadrant [1]: 96.2% | Kd [7]: 29.6 nM | koff [7]: 0.00176 s⁻¹ | kon [7]: 59400 M⁻¹ s⁻¹ | OD=405, row 1 of 8 (1/2 serial dilution from 500ng) [8]: 3.35 | OD=405, row 2 of 8 (1/2 serial dilution from 500ng) [8]: 3.31 | OD=405, row 3 of 8 (1/2 serial dilution from 500ng) [8]: 3.33 | OD=405, row 4 of 8 (1/2 serial dilution from 500ng) [8]: 3.26 | OD=405, row 5 of 8 (1/2 serial dilution from 500ng) [8]: 2.95 | OD=405, row 6 of 8 (1/2 serial dilution from 500ng) [8]: 2.41 | OD=405, row 7 of 8 (1/2 serial dilution from 500ng) [8]: 1.61 | OD=405, row 8 of 8 (1/2 serial dilution from 500ng) [8]: 0.975 | percent of cells in the positive quadrant [9]: 96.1%

B8: humanized antibody 2B3W (antibody, V domains shown)
VH: EVQLVESGGGLVQPGGSLRLSCAASGFVFSNYDMSWVRQAPGKGLEWVAYITIGGGTTYYPDTVKGRFTISRDNAKNSLYLQMNSLRAEDTAVYYCARWVYDPLYAMDYWGQGTTVTVSS
VL: DIVLTQTPLSLSVTPGQPASISCRASESVDNYGISFMNWFLQKPGQPPQLLIYAASNQGSGVPDRFSGSGSGTDFTLKISRVEAEDVGVYYCQQSKEVPWTFGQGTKVEIK
notes: Humanized antibody made in Expi293 cells
Kd [10]: 428 nM | percent of cells in the positive quadrant [1]: 95.6% | Kd [7]: 13.4 nM | koff [7]: 0.00271 s⁻¹ | kon [7]: 203000 M⁻¹ s⁻¹ | percent of cells in the positive quadrant [2]: 9.77% | OD=405, row 1 of 8 (1/2 serial dilution from 500ng) [8]: 3.17 | OD=405, row 2 of 8 (1/2 serial dilution from 500ng) [8]: 3.15 | OD=405, row 3 of 8 (1/2 serial dilution from 500ng) [8]: 3.2 | OD=405, row 4 of 8 (1/2 serial dilution from 500ng) [8]: 3.13 | OD=405, row 5 of 8 (1/2 serial dilution from 500ng) [8]: 2.92 | OD=405, row 6 of 8 (1/2 serial dilution from 500ng) [8]: 2.45 | OD=405, row 7 of 8 (1/2 serial dilution from 500ng) [8]: 1.7 | OD=405, row 8 of 8 (1/2 serial dilution from 500ng) [8]: 1.09 | percent of cells in the positive quadrant [9]: 94.7%

B11: T14-03 (antibody, V domains shown)
VH: EVQLVESGGGLVQPGGSLRLSCAASGFVFSNYDMSWVRQAPGKGLEWVAYITIGGGTTYYPDTVKGRFTISRDNAKNSLYLQMNSLRAEDTAVYYCARWVYDPLYAMDYWGQGTTVTVSS
VL: DIVLTQTPLSLSVTPGQPASISCRASESVTDYGISFMNWFLQKPGQPPQLLIYAASNQGSGVPDRFSGSGSGTDFTLKISRVEAEDVGVYYCQQSEEVPWTFGQGTKVEIK
percent of cells in the positive quadrant [1]: 90.9% | percent of cells in the positive quadrant [2]: 9.55%

B12: T14-01 (antibody, V domains shown)
VH: EVQLVESGGGLVQPGGSLRLSCAASGFVFSNYDMSWVRQAPGKGLEWVAYITIGGGTTYYPDTVKGRFTISRDNAKNSLYLQMNSLRAEDTAVYYCARWVYDPLYAMDYWGQGTTVTVSS
VL: DIVLTQTPLSLSVTPGQPASISCRASESVTDYGISFMNWFLQKPGQPPQLLIYAASNQGSGVPDRFSGSGSGTDFTLKISRVEAEDVGVYYCQQSKEVPWTFGQGTKVEIK
percent of cells in the positive quadrant [1]: 96.8% | percent of cells in the positive quadrant [2]: 17.4%

B13: 2-7C5 hybridoma antibody (antibody, V domains shown)
VH: EVQLVESGGGLVQPVGSLKLSCAASGFTFSSFGMSWVRQTPDKRLELVATIYSNGDYTYYPDSVKGRFTVSRDNAKNTLYLQMSSLKSEDTAMYYCARYYGNYGGYFDYWGQGTTLTVSS
VL: SIVMTQTPKFLLVSAGDRVTITCKASQSVSNDVAWYQQKPGQSPKLLIYYASNRYTGAPDRFTGSGYGTDFTFTISTVQAEDLAVYFCQQDYSSPPTFGGGTKLEIK
notes: Mouse hybridoma antibody
IC50 (read off the curve); PD-1/PD-L1 blocking reporter assay, fold induction [4]: ~3 µg/mL | Kd [5]: 17.1 nM | koff [5]: 0.00127 s⁻¹ | kon [5]: 74200 M⁻¹ s⁻¹

Reference: patent US20250270320A1 (EUTILEX, published 2025)
